Test results as given in article PMC4287557.

Tests used:
[1] = target: JRFL SOSIP trimer (HIV-1 subtype B, truncated at residue 663), negatively selected (HIV-1 subtype B strain JRFL)
[2] = target: 16055 SOSIP trimer (HIV-1 subtype C, truncated at residue 663), negatively selected (HIV-1 subtype C strain 16055); assay: negative-stain EM; negatively selected SOSIP trimers incubated with a ten molar excess of Fab or four-domain sCD4 at RT for 1 hour; 2% uranyl formate; 2D class averages (occupancy) and 3D reconstructions
[3] = target: JRFL SOSIP trimer (HIV-1 subtype B, truncated at residue 663), negatively selected (HIV-1 subtype B strain JRFL); assay: as above

PGT151 Fab, sequence (VH): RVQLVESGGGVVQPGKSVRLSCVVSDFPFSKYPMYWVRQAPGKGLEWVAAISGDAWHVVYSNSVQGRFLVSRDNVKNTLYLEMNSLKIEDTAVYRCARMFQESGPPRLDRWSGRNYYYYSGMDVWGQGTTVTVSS
PGT151 Fab, sequence (VL): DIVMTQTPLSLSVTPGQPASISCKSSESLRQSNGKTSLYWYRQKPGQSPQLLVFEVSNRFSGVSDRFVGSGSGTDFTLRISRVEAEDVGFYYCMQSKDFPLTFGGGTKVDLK

PGT151 Fab
increase of the melting temperature (Tm) of the JRFL SOSIP-Fab complex over the trimer alone, DSF [1]: 2.1 °C
percent of trimers with one Fab bound [2]: 34%
percent of trimers with three Fabs bound [2]: 0%
percent of trimers with two Fabs bound [2]: 20%
percent of trimers with one Fab bound [3]: 28%
percent of trimers with three Fabs bound [3]: 11%
percent of trimers with two Fabs bound [3]: 36%
